B1: YTH24.5-B4: rat IgG2b anti-CD45 antibody YTH24.5 conjugated to non-cleavable PBD drug-linker B4 (drawing 46) (conjugate)
heavy: QVNLLQSGAALVKPGASVKLSCKASSYTFTDYYIHWVKQSHGKTLEWIGYINPKSGFTNYNEKFRRKATLTVDKSTNTAYMDISRLTSEDSATYYCTRRTGVIPMDAWGQGASVTVSSAQTTAPSVYPLAPGCGDTTSSTVTLGCLVKGYFPEPVTVTWNSGALSSDVHTFPAVLQSGLYTLTSSVTSSTWPSQTVTCNVAHPASSTKVDKKVERRNGGIGHKCPTCPTCHKCPVPELLGGPSVFIFPPKPKDILLISQNAKVTCVVVDVSEEEPDVQFSWFVNNVEVHTAQTQPREEQYNSTFRVVSALPIQHQDWMSGKEFKCKVNNKALPSPIEKTISKPKGLVRKPQVYVMGPPTEQLTEQTVSLTCLTSGFLPNDIGVEWTSNGHIEKNYKNTEPVMDSDGSFFMYSKLNVERSRWDSRAPFVCSVVHEGLHNHHVEKSISRPPGK
light: DVVMTQTPVSLSVSLGGQVSISCRSSQSFVSSDGNTYLNWYLQKPGQSPQLLIYKVSNRLSGVPDRFSGSGSGTDFTLKISRVEHDDLGVYYCGQASKIPLTFGSGTKLEIKRADAAPTVSIFPPSMEQLTSGGATVVCFVNNFYPRDISVKWKIDGSEQRDGVLDSVTDQDSKDSTYSMSSTLSLTKVEYERHNLYTCEVVHKTSSSPVVKSFNRNEC
B2: YTH24.5-B7: rat IgG2b anti-CD45 antibody YTH24.5 conjugated to PBD drug-linker B7 (drawing 49) (conjugate)
heavy: QVNLLQSGAALVKPGASVKLSCKASSYTFTDYYIHWVKQSHGKTLEWIGYINPKSGFTNYNEKFRRKATLTVDKSTNTAYMDISRLTSEDSATYYCTRRTGVIPMDAWGQGASVTVSSAQTTAPSVYPLAPGCGDTTSSTVTLGCLVKGYFPEPVTVTWNSGALSSDVHTFPAVLQSGLYTLTSSVTSSTWPSQTVTCNVAHPASSTKVDKKVERRNGGIGHKCPTCPTCHKCPVPELLGGPSVFIFPPKPKDILLISQNAKVTCVVVDVSEEEPDVQFSWFVNNVEVHTAQTQPREEQYNSTFRVVSALPIQHQDWMSGKEFKCKVNNKALPSPIEKTISKPKGLVRKPQVYVMGPPTEQLTEQTVSLTCLTSGFLPNDIGVEWTSNGHIEKNYKNTEPVMDSDGSFFMYSKLNVERSRWDSRAPFVCSVVHEGLHNHHVEKSISRPPGK
light: DVVMTQTPVSLSVSLGGQVSISCRSSQSFVSSDGNTYLNWYLQKPGQSPQLLIYKVSNRLSGVPDRFSGSGSGTDFTLKISRVEHDDLGVYYCGQASKIPLTFGSGTKLEIKRADAAPTVSIFPPSMEQLTSGGATVVCFVNNFYPRDISVKWKIDGSEQRDGVLDSVTDQDSKDSTYSMSSTLSLTKVEYERHNLYTCEVVHKTSSSPVVKSFNRNEC
B3: YTH54.12-B4: rat IgG2b anti-CD45 antibody YTH54.12 conjugated to non-cleavable PBD drug-linker B4 (drawing 46) (conjugate)
heavy: EVQLVESGGGLVQPGGSMKLSCAASGFTFSDYYMAWVRQAPKKGLEWVASMSFAGSSTYYGDSVKGRFTISRDNAKTTLYLQMNSLRSEDTATYYCARMYTTDYYLYWYFDFWGPGTMVTVSSAQTTAPSVYPLAPGCGDTTSSTVTLGCLVKGYFPEPVTVTWNSGALSSDVHTFPAVLQSGLYTLTSSVTSSTWPSQTVTCNVAHPASSTKVDKKVERRNGGIGHKCPTCPTCHKCPVPELLGGPSVFIFPPKPKDILLISQNAKVTCVVVDVSEEEPDVQFSWFVNNVEVHTAQTQPREEQYNSTFRVVSALPIQHQDWMSGKEFKCKVNNKALPSPIEKTISKPKGLVRKPQVYVMGPPTEQLTEQTVSLTCLTSGFLPNDIGVEWTSNGHIEKNYKNTEPVMDSDGSFFMYSKLNVERSRWDSRAPFVCSVVHEGLHNHHVEKSISRPPGK
light: DVQMTQSPSYLAASPGESVSISCKASKSISNYLAWYQQKPGEANKILIYSGSTLQSGTPSRFSGSGSGTDFSLTIRNLEPEDFAVYYCQQYDEKPLTFGSGTKLEIKRADAAPTVSIFPPSMEQLTSGGATVVCFVNNFYPRDISVKWKIDGSEQRDGVLDSVTDQDSKDSTYSMSSTLSLTKVEYERHNLYTCEVVHKTSSSPVVKSFNRNEC
B4: YTH54.12-B7: rat IgG2b anti-CD45 antibody YTH54.12 conjugated to PBD drug-linker B7 (drawing 49) (conjugate)
heavy: EVQLVESGGGLVQPGGSMKLSCAASGFTFSDYYMAWVRQAPKKGLEWVASMSFAGSSTYYGDSVKGRFTISRDNAKTTLYLQMNSLRSEDTATYYCARMYTTDYYLYWYFDFWGPGTMVTVSSAQTTAPSVYPLAPGCGDTTSSTVTLGCLVKGYFPEPVTVTWNSGALSSDVHTFPAVLQSGLYTLTSSVTSSTWPSQTVTCNVAHPASSTKVDKKVERRNGGIGHKCPTCPTCHKCPVPELLGGPSVFIFPPKPKDILLISQNAKVTCVVVDVSEEEPDVQFSWFVNNVEVHTAQTQPREEQYNSTFRVVSALPIQHQDWMSGKEFKCKVNNKALPSPIEKTISKPKGLVRKPQVYVMGPPTEQLTEQTVSLTCLTSGFLPNDIGVEWTSNGHIEKNYKNTEPVMDSDGSFFMYSKLNVERSRWDSRAPFVCSVVHEGLHNHHVEKSISRPPGK
light: DVQMTQSPSYLAASPGESVSISCKASKSISNYLAWYQQKPGEANKILIYSGSTLQSGTPSRFSGSGSGTDFSLTIRNLEPEDFAVYYCQQYDEKPLTFGSGTKLEIKRADAAPTVSIFPPSMEQLTSGGATVVCFVNNFYPRDISVKWKIDGSEQRDGVLDSVTDQDSKDSTYSMSSTLSLTKVEYERHNLYTCEVVHKTSSSPVVKSFNRNEC

Tests used:
Nalm6 (CD45-) = assay: Cell viability assay 5 days (PrestoBlue), Nalm6; type: cell-based, human; details: rat IgG2b ADC, n=3
Protocol: (§1) OCIM1, Jurkat and Nalm6 cells were seeded at a final concentration of 1.275×10^4/mL and for 5 days in presence of rat IgG2b Mab or ADC or medium (in triplicate) in wells of flat bottom 96-well plates. 293T cells were seeded at 9.3×10^3 cells per 100 uL per well in flat bottom 96-well plates and allowed to adhere the plate for up to 24 hours. 293T cells were subsequently cultured with rat IgG2b Mabs or ADC or medium (in triplicate wells) as described above. PrestoBlue® Cell viability Reagent (Thermo Fisher Scientific) was added to each and incubated for up to 1.5 hours. Fluorescence intensity from each well was detected using a FLUOstar OPTIMA microplate reader (BMG Labtech). Data was plotted using Prism 8.0 and sigmoid dose-response non-linear regression was used to determine EC50 values. Data points are mean±s.d. for representative experiments.

293T (CD45-) = assay: Cell viability assay 5 days (PrestoBlue), 293T; type: cell-based, human; details: rat IgG2b ADC, n=3
Protocol: as §1

fLuc+ OCIM1 cells [1] = assay: AML model in NSG mice, treatment the day after cell injection; type: in vivo; details: for tumor (bioluminescence) signal: 1 mg/kg or 5 mg/kg i.v. the day after OCIM1 injection
Protocol: (§2) NSG mice were transplanted with 7.5×10^6 luciferase expressing fLuc+ OCIM1 cells i.v. On the following day, unconjugated rat IgG2b antibodies or ADCs were injected i.v. via a tail vein at a dose of 1 mg/kg or 5 mg/kg. Mice were regularly monitored for signs of morbidity for the duration of the experiment. For imaging, mice were injected intraperitoneally with 200 μl of 15 mg/mL D-luciferin (Regis Technologies) in PBS. Mice were subsequently anesthetized with 4% isoflurane and maintained at 2% isoflurane. Ten minutes after injection of D-luciferin, mice were placed with anterior side up inside a IVIS Lumina III (PerkinElmer). A sub-saturating image was captured using the auto-exposure setting in the Living Image software (v4.5). Quantification and preparation of images was also carried out using the same software.

fLuc+ OCIM1 cells [2] = assay: Established AML model in NSG mice, treatment 10 days post-injection; type: in vivo
Protocol: as §2, with “7.5×10^6” for “7.5×10^6 luciferase expressing”, “At 10 days post-injection of AML cells,” for “On the following day,”, “antibody” for “rat IgG2b antibodies”

human CD45+ cells = assay: Allogeneic stem cell transplant model in humanized NSG mice, comparison of payloads; type: in vivo; details: 1 mg/kg
Protocol: Adult NSG mice (Charles River Laboratories) were sublethally irradiated with 2.5 Gy in a ^137Cs irradiator. On the following day, mice were injected with 0.5×10^6 freshly thawed cryopreserved human CD34+ cells from a health donor were injected via the tail vein in 150 μL PBS using a 29 gauge MicroFine Plus insulin syringe (BD). Engraftment of human cells in the blood was assessed periodically from 6 weeks after transplantation. At 10 weeks post-transplant, humanized NSG mice were assigned into cohorts with similar median human CD45+ cell engraftment in the blood, as determined by flow cytometry. Mice were injected with PBS or 1 mg/kg YTH24.5-B1. Sixteen 16 days after treatment, mice were transplanted with 0.5×10^6 GFP+CD34+ cells from another healthy donor. Irradiated NSG […] were also transplanted with the GFP+CD34+ from the allogeneic healthy donor as a control for engraftment of the GFP+CD34+ cells. 8 weeks after transplantation of GFP+ cells, mice were culled and blood, spleen and bone marrow taken for analysis by flow cytometry.
Experimental schedule is as previously described in example 16 but with the following modifications. Humanized NSG mice at 10 weeks post-transplant were injected with PBS or 1 mg/kg YTH24.5-B1, YTH54.12-B1, Isotype-B1, YTH24.5-B4 and Isotype-3376. Isotype-B2 and YTH24.5-B2 was given at a dose of 5 mg/kg. Transplantation of 0.5×10^6 GFP+CD34+ from an allogeneic human donor and analysis at 8 weeks post-transplant of GFP+ cells was carried out as previously described.

Row | Molecule | EC50 (Nalm6 (CD45-)) [nM] | EC50 (293T (CD45-)) [nM] | tumor (bioluminescence) signal (fLuc+ OCIM1 cells [1]) | period of tumor regression / low tumor signal (fLuc+ OCIM1 cells [2]) | percentage GFP+ human CD34+ cells in the bone marrow (mean) (human CD45+ cells) [%] | mean % hCD45+ engraftment in the bone marrow (human CD45+ cells; 8 weeks after allogeneic GFP+ cells, PBS 14.12%) [%] | mice developing tumor / tumor signal (fLuc+ OCIM1 cells [1]; 1 mg/kg or 5 mg/kg i.v., cohorts of 5 mice) | mice alive at 60 days (fLuc+ OCIM1 cells [2]; cohorts of 5 mice, all tumor-bearing)
1 | B1 | 0.162 | > 6 | Low/absent tumor signal | marginally longer period of low tumor signal than YTH24.5-B1 | 57.95 | 7.34 |  | 
2 | B2 | 0.905 | > 6 | Increasing tumor signal in three mice |  |  |  | 3/5 | 
3 | B3 | 0.715 | > 6 |  |  |  |  |  | 4/5
4 | B4 | 1.56 | > 6 |  |  |  |  |  | 

— patent publication US20220096654A1, “PYRROLOBENZODIAZEPINE-ANTIBODY CONJUGATES AND USES THEREOF” (ADC THERAPEUTICS SA, priority 2020, published 2022)
